Biological target: 21480B
Experiment: Octet

B1: IL2Rbeta (receptor)
chain: AVNGTSQFTCFYNSRANISCVWSQDGALQDTSCQVHAWPDRRRWNQTCELLPVSQASWACNLILGAPDSQKLTTVDIVTLRVLCREGVRWRVMAIQDFKPFENLRLMAPISLQVVHVETHRCNISWEISQASHYFERHLEFEARTLSPGHTWEEAPLLTLKQKQEWICLETLTPDTQYEFQVRVKPLQGEFTTWSPWSQPLAFRTKPAALGKD
Kd: 8.1 nM
